Test results from publication PMC10631681, “The structural basis of mRNA recognition and binding by yeast pseudouridine synthase PUS1”.
Numbering of substitutions follows the chain as printed.

Assays:
[1] = molecular target: T1, PUS1 D134A (tagless, crystal) (Saccharomyces cerevisiae, UniProt Q12211 1-544, D134A); test: X-ray crystallography (2.4 A); sulfate ion near RNA 5' end; EMSA: 100 nM R263 with 100 nM-1 uM PUS1 in 100 ul under PUS1 activity assay conditions (buffer not in the material), 90 min, SYBR Gold stain; crystals: 7R9G 0.05 M ammonium sulfate, 0.05 M Bis-Tris pH 6.0, 26% pentaerythritol ethoxylate, 4 C; 7R9F 0.2 M K/Na tartrate, 18% PEG 3350, 25 C; conditions: protein: recombinant; tags: none; chain copies: 2; self-duplex of 2 copies; positions 2-10 paired with non-Watson-Crick pairs (two central G:G reverse Hoogsteen); 3' ends disordered
T1 sequence: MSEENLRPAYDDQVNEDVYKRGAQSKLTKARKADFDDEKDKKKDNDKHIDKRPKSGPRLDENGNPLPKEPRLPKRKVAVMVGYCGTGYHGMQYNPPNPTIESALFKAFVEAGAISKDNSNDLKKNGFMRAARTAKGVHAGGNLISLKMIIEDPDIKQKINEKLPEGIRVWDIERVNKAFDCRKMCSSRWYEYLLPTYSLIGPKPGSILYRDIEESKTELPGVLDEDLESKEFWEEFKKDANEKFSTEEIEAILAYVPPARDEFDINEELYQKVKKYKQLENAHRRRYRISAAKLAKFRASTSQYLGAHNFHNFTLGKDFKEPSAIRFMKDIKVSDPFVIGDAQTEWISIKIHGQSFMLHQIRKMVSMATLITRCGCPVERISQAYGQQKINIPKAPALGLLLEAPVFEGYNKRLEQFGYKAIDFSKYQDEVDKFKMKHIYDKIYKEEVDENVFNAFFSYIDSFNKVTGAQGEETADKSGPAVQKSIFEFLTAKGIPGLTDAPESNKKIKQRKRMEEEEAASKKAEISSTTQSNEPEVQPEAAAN

PUS1 D134A (His-tagged) = molecular target: T2, PUS1 D134A (His-tagged) (Saccharomyces cerevisiae, UniProt Q12211 1-544, D134A); test: EMSA; 100 nM RNA, increasing protein; EMSA: 100 nM R263 with 100 nM-1 uM PUS1 in 100 ul under PUS1 activity assay conditions (buffer not in the material), 90 min, SYBR Gold stain; crystals: 7R9G 0.05 M ammonium sulfate, 0.05 M Bis-Tris pH 6.0, 26% pentaerythritol ethoxylate, 4 C; 7R9F 0.2 M K/Na tartrate, 18% PEG 3350, 25 C; conditions: protein: recombinant; tags: N-terminal 6xHis; predicted short stem-loop; strand state in EMSA not determined
T2 sequence: T1 sequence

[2] = molecular target: T3, PUS1 wild type (His-tagged) (Saccharomyces cerevisiae, UniProt Q12211 1-544); test: as above; conditions: protein: recombinant; tags: N-terminal 6xHis; predicted short stem-loop; strand state in EMSA not determined
T3 sequence: T1 sequence with A134D

[3] = molecular target: T4, PUS1 wild type (tagless, crystal) (Saccharomyces cerevisiae, UniProt Q12211 1-544); test: X-ray crystallography (2.9 A); EMSA: 100 nM R263 with 100 nM-1 uM PUS1 in 100 ul under PUS1 activity assay conditions (buffer not in the material), 90 min, SYBR Gold stain; crystals: 7R9G 0.05 M ammonium sulfate, 0.05 M Bis-Tris pH 6.0, 26% pentaerythritol ethoxylate, 4 C; 7R9F 0.2 M K/Na tartrate, 18% PEG 3350, 25 C; conditions: protein: recombinant; tags: none; chain copies: 2; self-duplex of 2 copies, same duplex as R263
T4 sequence: T1 sequence with A134D

B1: R263 duplex (crystal) (dsRNA)
RNA 1: AAAUCGGGAUUCCGGAUA
RNA 2: AAAUCGGGAUUCCGGAUA
B1: binds [1].

AAAUCGGGAUUCCGGAUA (ssRNA) [R263 (EMSA)]: binds (PUS1 D134A (His-tagged)); binds [2].

B2: R340 duplex (crystal) (dsRNA)
RNA 1: UAAUCGGGAUUCCGGAUA
RNA 2: UAAUCGGGAUUCCGGAUA
modifications: 5-fluorouracil at position 1 (written as U)
B2: binds [3].
